Experimental data as given in IntAct's records for PubMed 18794898.

B1: Indian hedgehog protein (Mus musculus), P97812 (parent)
chain: MSPAWLRPRLRFCLFLLLLLLVPAARGCGPGRVVGSRRRPPRKLVPLAYKQFSPNVPEKTLGASGRYEGKIARSSERFKELTPNYNPDIIFKDEENTGADRLMTQRCKDRLNSLAISVMNQWPGVKLRVTEGWDEDGHHSEESLHYEGRAVDITTSDRDRNKYGLLARLAVEAGFDWVYYESKAHVHCSVKSEHSAAAKTGGCFPAGAQVRLENGERVALSAVKPGDRVLAMGEDGTPTFSDVLIFLDREPNRLRAFQVIETQDPPRRLALTPAHLLFIADNHTEPAAHFRATFASHVQPGQYVLVSGVPGLQPARVAAVSTHVALGSYAPLTRHGTLVVEDVVASCFAAVADHHLAQLAFWPLRLFPSLAWGSWTPSEGVHWYPQMLYRLGRLLLEESTFHPLGMSGAGS
partner: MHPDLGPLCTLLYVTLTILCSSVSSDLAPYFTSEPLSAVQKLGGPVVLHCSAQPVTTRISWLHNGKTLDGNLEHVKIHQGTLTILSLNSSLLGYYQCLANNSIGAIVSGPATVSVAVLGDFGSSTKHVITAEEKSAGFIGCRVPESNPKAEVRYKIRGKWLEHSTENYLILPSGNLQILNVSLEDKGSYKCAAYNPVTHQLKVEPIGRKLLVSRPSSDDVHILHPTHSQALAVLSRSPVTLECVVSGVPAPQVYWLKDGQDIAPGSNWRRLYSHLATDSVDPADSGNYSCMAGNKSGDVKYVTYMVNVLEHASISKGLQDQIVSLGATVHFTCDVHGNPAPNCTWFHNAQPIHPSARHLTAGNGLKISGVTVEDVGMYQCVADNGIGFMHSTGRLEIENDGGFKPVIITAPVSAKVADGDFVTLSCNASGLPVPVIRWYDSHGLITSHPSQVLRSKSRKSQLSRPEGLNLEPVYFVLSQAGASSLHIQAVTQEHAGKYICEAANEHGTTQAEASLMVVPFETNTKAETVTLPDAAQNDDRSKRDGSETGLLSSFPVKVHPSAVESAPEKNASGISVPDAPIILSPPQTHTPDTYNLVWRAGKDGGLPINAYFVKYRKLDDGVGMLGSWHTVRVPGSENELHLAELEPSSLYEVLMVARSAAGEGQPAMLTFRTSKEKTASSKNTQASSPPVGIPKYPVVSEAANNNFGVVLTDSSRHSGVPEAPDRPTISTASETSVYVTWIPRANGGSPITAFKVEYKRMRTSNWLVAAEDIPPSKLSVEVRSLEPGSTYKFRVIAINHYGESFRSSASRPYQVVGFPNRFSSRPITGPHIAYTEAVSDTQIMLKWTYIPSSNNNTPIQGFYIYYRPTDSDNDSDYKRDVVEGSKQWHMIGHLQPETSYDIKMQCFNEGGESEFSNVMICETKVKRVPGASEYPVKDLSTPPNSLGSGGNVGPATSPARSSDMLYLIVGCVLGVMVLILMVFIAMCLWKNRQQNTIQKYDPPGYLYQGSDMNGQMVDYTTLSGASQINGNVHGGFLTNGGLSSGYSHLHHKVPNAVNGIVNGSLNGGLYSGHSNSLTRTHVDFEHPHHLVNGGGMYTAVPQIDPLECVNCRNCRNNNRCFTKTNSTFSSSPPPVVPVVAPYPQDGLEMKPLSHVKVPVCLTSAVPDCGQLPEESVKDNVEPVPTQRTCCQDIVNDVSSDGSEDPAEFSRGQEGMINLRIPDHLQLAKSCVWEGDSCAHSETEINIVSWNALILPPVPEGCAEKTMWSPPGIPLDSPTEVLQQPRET

Variants of: B1
Conditions: with cdon_human CDON

| Variant | effect of a mutation on the interaction |
| --- | --- |
| E131K | disrupting interaction |
